Reference: publication PMC12990809

Assays:
Test in all cases: pulldown
Settings in all cases: 20 nM protein, 1.5 uM RNA pool; 20 mM HEPES pH 7.8, 70 mM KCl, 10 mM NaCl, 10% glycerol, 2 mM DTT, 0.1 ug/uL BSA; 30 min, 4 C
[1] = biological target: T1, UBA2B (Arabidopsis thaliana) (UniProt O80678)
T1 sequence: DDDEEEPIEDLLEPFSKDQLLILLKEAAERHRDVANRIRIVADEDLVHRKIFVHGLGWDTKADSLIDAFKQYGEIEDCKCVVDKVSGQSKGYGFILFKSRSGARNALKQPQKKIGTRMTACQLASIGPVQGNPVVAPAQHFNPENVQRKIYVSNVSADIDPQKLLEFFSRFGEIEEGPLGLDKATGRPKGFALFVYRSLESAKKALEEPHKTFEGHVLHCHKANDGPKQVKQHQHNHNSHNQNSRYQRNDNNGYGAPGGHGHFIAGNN

[2] = biological target: T2, PK00513.1 (Cannabis sativa) (UniProt A0A7J6DZZ3)
T2 sequence: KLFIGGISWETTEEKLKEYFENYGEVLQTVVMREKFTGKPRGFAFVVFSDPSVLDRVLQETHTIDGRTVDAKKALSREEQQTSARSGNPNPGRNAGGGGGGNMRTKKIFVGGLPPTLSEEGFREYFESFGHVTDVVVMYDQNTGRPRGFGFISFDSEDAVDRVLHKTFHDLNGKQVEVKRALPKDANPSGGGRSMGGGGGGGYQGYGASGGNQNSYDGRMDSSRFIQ

[3] = biological target: fmr1 (Xenopus tropicalis) (UniProt Q6GLC9)
Sequence of fmr1 (Xenopus tropicalis) (Q6GLC9 170-401): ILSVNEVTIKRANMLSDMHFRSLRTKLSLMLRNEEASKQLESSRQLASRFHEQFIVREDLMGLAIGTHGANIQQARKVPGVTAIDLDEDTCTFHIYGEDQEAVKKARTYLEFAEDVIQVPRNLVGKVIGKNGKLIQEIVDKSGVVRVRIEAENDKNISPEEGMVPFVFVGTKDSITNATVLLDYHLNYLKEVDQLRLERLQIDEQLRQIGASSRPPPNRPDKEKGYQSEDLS

[4] = biological target: T3, pab-1 (Caenorhabditis elegans) (UniProt Q9U302)
T3 sequence: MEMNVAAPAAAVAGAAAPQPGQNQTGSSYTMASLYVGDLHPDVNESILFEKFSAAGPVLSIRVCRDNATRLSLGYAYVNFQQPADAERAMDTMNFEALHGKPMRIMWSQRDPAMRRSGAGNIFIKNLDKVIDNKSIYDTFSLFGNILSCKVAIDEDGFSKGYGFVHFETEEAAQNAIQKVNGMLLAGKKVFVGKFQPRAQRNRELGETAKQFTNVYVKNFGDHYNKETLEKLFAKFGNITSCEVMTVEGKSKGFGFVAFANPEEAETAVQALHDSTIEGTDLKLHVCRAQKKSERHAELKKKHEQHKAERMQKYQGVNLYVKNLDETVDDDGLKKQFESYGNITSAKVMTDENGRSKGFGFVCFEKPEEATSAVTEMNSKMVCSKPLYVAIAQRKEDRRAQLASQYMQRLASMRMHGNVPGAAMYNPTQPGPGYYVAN

[5] = biological target: T4, PK00840.1 S382G (Cannabis sativa) (UniProt A0A803NL23)
T4 sequence: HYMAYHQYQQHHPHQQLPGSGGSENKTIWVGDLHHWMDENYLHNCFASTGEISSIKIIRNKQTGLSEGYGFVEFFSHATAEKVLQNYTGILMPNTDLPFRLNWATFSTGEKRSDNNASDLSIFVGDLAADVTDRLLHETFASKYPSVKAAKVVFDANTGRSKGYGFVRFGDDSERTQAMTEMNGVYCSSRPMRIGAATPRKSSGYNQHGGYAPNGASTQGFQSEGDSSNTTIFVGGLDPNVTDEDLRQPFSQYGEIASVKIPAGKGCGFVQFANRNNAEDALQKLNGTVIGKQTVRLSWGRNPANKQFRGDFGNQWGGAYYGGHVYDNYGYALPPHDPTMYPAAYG

[6] = biological target: T5, PK05405.1 I85V;D92G;E327K;K328E (Cannabis sativa) (UniProt A0A7J6HVI1)
T5 sequence: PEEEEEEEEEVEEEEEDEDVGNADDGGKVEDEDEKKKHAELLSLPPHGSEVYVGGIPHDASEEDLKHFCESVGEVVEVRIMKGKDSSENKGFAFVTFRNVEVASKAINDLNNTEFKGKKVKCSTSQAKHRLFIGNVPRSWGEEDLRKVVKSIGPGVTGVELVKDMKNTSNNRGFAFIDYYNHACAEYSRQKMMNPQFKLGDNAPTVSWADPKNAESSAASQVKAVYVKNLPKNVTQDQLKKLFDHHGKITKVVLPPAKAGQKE

[7] = biological target: T6, rbm-28 (Caenorhabditis elegans) (UniProt O62325)
T6 sequence: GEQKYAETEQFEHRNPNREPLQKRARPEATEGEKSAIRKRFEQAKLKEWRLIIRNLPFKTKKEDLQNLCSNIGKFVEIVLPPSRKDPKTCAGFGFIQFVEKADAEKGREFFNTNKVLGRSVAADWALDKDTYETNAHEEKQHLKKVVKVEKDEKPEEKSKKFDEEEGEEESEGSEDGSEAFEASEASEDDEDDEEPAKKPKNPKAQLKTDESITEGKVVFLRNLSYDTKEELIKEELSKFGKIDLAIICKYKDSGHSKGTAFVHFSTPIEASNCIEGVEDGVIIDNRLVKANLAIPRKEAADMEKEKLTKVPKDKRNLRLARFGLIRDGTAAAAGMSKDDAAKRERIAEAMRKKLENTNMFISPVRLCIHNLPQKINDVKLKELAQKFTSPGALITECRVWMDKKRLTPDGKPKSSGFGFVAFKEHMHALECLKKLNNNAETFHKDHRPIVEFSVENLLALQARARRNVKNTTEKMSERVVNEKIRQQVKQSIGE

For UUUUU [RNAcompete motif RNCMPT00475], the binding signal (z-score (mean of top ten 7-mers)) [1] was 10.7.
With GUAGGAA [RNAcompete motif RNCMPT00462] the binding signal (z-score (mean of top ten 7-mers)) [2] was 10.4.
AAGACAA [RNAcompete motif RNCMPT00474] was tested, and the binding signal (z-score (mean of top ten 7-mers)) [3] was 6.01.
Work on AAAAAA [RNAcompete motif RNCMPT00471] yielded a binding signal (z-score (mean of top ten 7-mers)) [4] of 12.5.
Work on UUUUUU [RNAcompete motif RNCMPT00461] yielded a binding signal (z-score (mean of top ten 7-mers)) [5] of 7.67.
UUUUUCG [RNAcompete motif RNCMPT00466] showed a binding signal (z-score (mean of top ten 7-mers)) [6] of 7.47.
AGACUCU [RNAcompete motif RNCMPT00470] showed a binding signal (z-score (mean of top ten 7-mers)) [7] of 9.34.
